Assay [1] deals with Bax (Homo sapiens, UniProt Q07812). Put plainly: Suppression of apoptosis induced by Bax over-expression (Humanin mutants). The class given is cell-based. More on the design: expressed in transfected cells; host or cells: HEK293T. As to conditions: GFP-fusion polypeptides, 3:1 ratio of HN:Bax plasmid DNA. The procedure:
Apoptosis assays were performed as follows. Both floating and adherent cells (after trypsinization) were collected 48 hr after transfection, fixed, and stained using 4′,6-diamidine-2′-phenylindole dihydrochloride (DAPI) for assessing apoptosis based on nuclear fragmentation and chromatin condensation (Fields and Song, supra (1989)).
In order to explore whether a correlation exists between Humanin binding to Bax and Humanin-mediated suppression of apoptosis, Bax was co-expressed with various GFP-fusion polypeptides encoding wild-type, full-length Humanin or various truncation and site-specific mutants of Humanin (Table 1). Expression of all GFP-fusion polypeptides was confirmed by immunoblotting, and ability to bind Bax was determined by co-immunoprecipitation assay. Each Humanin mutant was scored for ability to suppress apoptosis induced by Bax over-expression by >50% using a 3:1 ratio of HN:Bax plasmid DNA. […] Based on these studies, an active region of the 24 amino-acid Humanin peptide, mapped to residues 7-17.
Cell culture and transfections were performed as follows. CSM14.1, HCT116, Cos-7, and SF268 cells were cultured in DMEM high glucose media (Irvine Scientific, Santa Ana, Calif.) containing 10% fetal bovine serum (FBS). PC-3 cells were cultured with RPMI 1640 media containing 10% FBS. Transfection of cells was performed using SuperFect (Qiagen, Chatsworth, Calif.) or LipofectaminePLUS reagent ([…]).

The next assay deals with HCT116 parental cells. Put plainly: STS-induced apoptosis in HCT116 parental cells. The class given is cell-based, human.
For the next assay, the target named is T1, RFP-Bax (Homo sapiens, UniProt Q07812).
T1 construct: expressed in transfected cells; host or cells: Cos-7
T1 sequence (Q07812 whole entry): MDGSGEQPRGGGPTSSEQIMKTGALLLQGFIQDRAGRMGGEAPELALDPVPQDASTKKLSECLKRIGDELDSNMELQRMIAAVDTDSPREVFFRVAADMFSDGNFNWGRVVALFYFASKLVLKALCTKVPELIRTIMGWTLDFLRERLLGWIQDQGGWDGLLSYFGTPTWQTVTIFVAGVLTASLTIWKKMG
Put plainly: Cellular co-localization in Cos-7 cells (confocal microscope). The class given is cell-based. The text has this: GFP-HN and a Red Fluorecence Protein (RFP) vector, RFP-Bax, were transfected into Cos-7 cells. The intracellular localization of the expressed polypeptides was examined using a confocal microscope. […] GFP-HN localized to punctate intracellular membranes and when GFP-HN and RFP-Bax were co-expressed, the two polypeptides co-localized to intracellular membranes (data not shown).

Another assay addresses T2, endogenous Bax (Mus musculus, UniProt Q07813).
T2 construct: from tissue; host or cells: testes of three-week-old mice
The experiment in a line: Co-immunoprecipitation of endogenous Humanin and Bax from mouse testis lysates. The assay is classed as binding. As to conditions: endogenous peptide and protein. The text has this: (A) HEK293T cells were transfected with pcDNA3-myc plasmids encoding Bax or other Bcl-2 family proteins with GFP, GFP-HN, or GFP-HN(C8P). Cell lysates were immunoprecipitated with polyclonal anti-GFP antibody. The immunoprecipitates or the lysates were blotted with anti-myc or anti-GFP antibodies, respectively. The slower migrating form of GFP seen in lane 1 (asterisk)represents an alternative form of GFP produced from the wild-type (control) p-EGFP-Cl plasmid (http://clonotech.com). (B) Testes of three-week-old mice were homogenized in lysis buffer (0.1% Triton X-100, 50 mM Tris-HCl, pH7.5, 1 mM EDTA, plus protease inhibitor cocktail). The lysates were immunoprecipitated with control rabbit serum or polyclonal anti-mouse Bax antibody. The immunoprecipitates or the lysates were subjected to electrophoresis in Tris/Tricine gels (16% T, 3% C), electroblotted to PVDF membrane, and immunoblotted with polyclonal anti-HN antibody or monoclonal anti-Bax antibody 6A7 (Trevigen). […]
A rabbit polyclonal antibody raised against Humanin peptide (P04, gift of Dr. Ikuo Nishimoto) was used to examine whether endogenous Humanin peptide interacts with endogenous Bax polypeptide. […] In addition, endogenous Humanin was determined to be a cytosolic protein, based on subcellular fractionation experiments.

The next assay deals with T3, BaxΔTM (Homo sapiens, UniProt Q07812).
T3 construct: a C-terminally truncated Bax protein (residues 1-169) (BaxΔTM); expressed in transfected cells; host or cells: HEK293T (lysates mixed in vitro)
T3 sequence (Q07812 1-169, stated change not applied): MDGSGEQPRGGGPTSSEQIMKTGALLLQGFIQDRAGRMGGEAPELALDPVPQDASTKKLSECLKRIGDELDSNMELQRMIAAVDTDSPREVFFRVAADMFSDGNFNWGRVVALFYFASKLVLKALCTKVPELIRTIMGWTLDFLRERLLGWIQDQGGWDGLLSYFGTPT
T3 sequence (Q07812 170-192 partner limits assumed): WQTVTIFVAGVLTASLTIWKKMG
Put plainly: Co-immunoprecipitation of BaxΔTM with GFP-TM(Bax). The class given is binding. Conditions: lysates pre-incubated with peptide. The procedure:
(A-B) Humanin peptide prevents STS-induced Bax translocation in vivo. Cos-7 cells were first transfected with GFP-Bax plasmids. After 24 hrs, untagged wild-type or C8P mutant Humanin peptides were introduced into cells using ChariotTM reagent, and 2 h later cells were treated with 1 μM STS. After 4 h, the percentage of cells with translocated Bax was determined (mean±SD; n=3) by confocal microscopy (A) and representative photomicrographs (B). (C) Wild-type or C8P mutant Humanin peptides were introduced into Cos7 cells using ChariotTM reagent. Cytosolic (C) and mitochondria-containing (M) fractions were isolated by differential centrifugation 23 and analyzed by immunoblotting using anti-Bax (top), Hsp60 (middle) (mitochondrial marker), or Tubulin (bottom) (cytosol marker) antibodies. (D) HN or mutant control double-strand siRNAs were transfected into SF268 cells. After 48 h, cells were cultured without (Control) or with 0.1 uM STS. After 24 hr, cells were fractionated and analyzed by immunoblotting as above. (E) Isolated mitochondria were mixed with 400 ng Bax protein, with or without preincubating Bax with 100 uM Humanin or Humanin(C8P) peptides for 10 min. After 3 h at 30° C., mitochondria were centrifuged and the resulting pellets (P) and supernatants (S) were analyzed by immunoblotting using anti-Cytochrome c (top), Hsp60 (middle), and Bax (bottom) antibodies. […]

The subject of assay [2] is Bax. The experiment in a line: Bax-induced lethality in yeast. Conditions: TAD-fusion polypeptide, galactose-induced Bax. The class given is cell-based, S. cerevisiae.

These results are taken from patent US7422862B2, “Methods for identifying modulators of apoptosis” (The Burnham Institute, priority 2001, dated 2008).

T2 sequence (Q07813 whole entry): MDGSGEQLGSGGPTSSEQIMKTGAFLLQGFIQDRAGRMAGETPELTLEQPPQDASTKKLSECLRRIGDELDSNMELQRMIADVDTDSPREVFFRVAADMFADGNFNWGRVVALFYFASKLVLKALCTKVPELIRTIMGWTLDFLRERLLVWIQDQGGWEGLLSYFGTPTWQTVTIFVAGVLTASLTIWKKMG
Bax (Homo sapiens, UniProt Q07812), sequence (Q07812 whole entry, species assumed, the tested form may be a part): as the sequence (Q07812 whole entry) above

Consider “GFP-HN: Wild-type full-length Humanin fused to Green Fluorescent Protein”, for which, in the assay with Bax [1], the Bax suppression entry was “+ (ability to suppress apoptosis induced by Bax over-expression by >50%)”. In addition, the “reduction of percentage of cells undergoing STS-induced apoptosis” value in the assay with HCT116 parental cells is “about half”. The “co-localization with RFP-Bax” value with RFP-Bax was “co-localized”.
Take “Humanin: 24 amino acid polypeptide, cytosolic form of human Humanin (SEQ ID NO:2); used as synthetic peptide or expressed fusion”: the “co-immunoprecipitation with Bax from mouse testis lysates” value with endogenous Bax is reported as “co-immunoprecipitated”. The “interaction of BaxΔTM with GFP-TM” value in the assay with BaxΔTM is on record as “immunoprecipitated”. Further, the “rescue of yeast from Bax-induced lethality” value in the assay with Bax [2] is reported as “rescued”.
